From patent US20240309109A1 (MorphoSys, published 2024)
Changes are numbered by the printed parent chain. Blank lines part the entries; values can stand above or below the binder they belong to.

Legend:
[1] = biological target: T1, human CD38 on cells (human, UniProt P28907 1-300); assay: FACS Scatchard on CCRF-CEM cells, single measurement
T1 construct: The cell that carried CD38 is named under assay in each row; also called CD38 on Raji, RPMI8226, OPM2, CCRF-CEM, human erythrocytes, CD38 CHO-K1 transfectants

[2] = biological target: T1, human CD38 on cells; assay: cell-based or functional assay
[3] = biological target: T1, human CD38 on cells; assay: FACS Scatchard on RPMI8226 cells, single measurement
[4] = biological target: T1, human CD38 on cells; assay: FACS Scatchard on OPM2 cells, mean from 2 measurements
[5] = biological target: T1, human CD38 on cells; assay: FACS Scatchard on OPM2 cells, IgG format
[6] = biological target: T2, human CD38 Fc-fusion aa 45-300 (human, UniProt P28907 45-300); assay: ELISA on CD38 Fc-fusion protein, IgG format
T2 construct: Expressed in HEK293 behind a human Vkappa leader, which is left out here; also called CD38-Fc fusion protein; CD38 Fc-Fusion protein

[7] = biological target: T1, human CD38 on cells; assay: FACS Scatchard, IgG1 on Raji cells
[8] = biological target: T1, human CD38 on cells; assay: FACS Scatchard on OPM2 cells, IgG format; * different experiment
[9] = biological target: T3, Cynomolgus CD38 on PBMCs (Lymphocytes) (cynomolgus monkey, UniProt Q5VAN0); assay: FACS, Fab format, cynomolgus lymphocytes (PBMC fraction)
T3 construct: native protein on lymphocytes of the PBMC fraction of whole blood

[10] = biological target: CD38 (antigen of the Bioveris affinity determination) (Homo sapiens (Human), UniProt P28907 45-300, limits assumed); assay: Bioveris, Fab format
[11] = biological target: T1, human CD38 on cells; assay: FACS Scatchard on RPMI8226 cells
[12] = biological target: T2, human CD38 Fc-fusion aa 45-300; assay: SPR (Biacore), Fab format
[13] = biological target: T4, Cynomolgus CD38 on Erythrocytes (cynomolgus monkey, UniProt Q5VAN0); assay: FACS, Fab format, cynomolgus erythrocytes
T4 construct: native protein on erythrocytes (pellet of the density gradient)

[14] = biological target: T2, human CD38 Fc-fusion aa 45-300; assay: SPR (Biacore), Fab on immobilized CD38 Fc-fusion
[15] = biological target: T4, Cynomolgus CD38 on Erythrocytes; assay: FACS, Fab format, cynomolgus erythrocytes; column taken from the order of panel A [Continued]
[16] = biological target: T3, Cynomolgus CD38 on PBMCs (Lymphocytes); assay: FACS, Fab format, cynomolgus lymphocytes (PBMC fraction); column taken from the order of panel A [Continued]
[17] = biological target: T1, human CD38 on cells; assay: FACS Scatchard on RPMI8226 cells; * different experiment
[18] = biological target: T1, human CD38 on cells; assay: FACS Scatchard on RPMI8226 cells, single measurement; RPMI8226 cells, FACS Scatchard; single measurement
[19] = biological target: T1, human CD38 on cells; assay: FACS Scatchard on OPM2 cells, mean from 2 measurements; OPM2 cells, FACS Scatchard; mean from 2 measurements
[20] = biological target: T1, human CD38 on cells; assay: FACS Scatchard on CCRF-CEM cells, single measurement; CCRF-CEM cells, FACS Scatchard; single measurement
[21] = biological target: T1, human CD38 on cells; assay: FACS Scatchard on OPM2 cells, IgG format; * different experiment; OPM2 cells, FACS Scatchard, IgG format; different experiment
[22] = biological target: T2, human CD38 Fc-fusion aa 45-300; assay: SPR (Biacore), Fab on immobilized CD38 Fc-fusion; 54 is the standard deviation (n = 3)
[23] = biological target: T2, human CD38 Fc-fusion aa 45-300; assay: SPR (Biacore), Fab on immobilized CD38 Fc-fusion; 84 taken as the standard deviation (n = 4) by footnote d

B1: MOR03087 IgG1 (antibody, V domains shown)
VH: QVQLVESGGGLVQPGGSLRLSCAASGFTFSSYYMNWVRQAPGKGLEWVSGISGDPSNTYYADSVKGRFTISRDNSKNTLYLQMNSLRAEDTAVYYCARDLPLVYTGFAYWGQGTLVTVSS
VL: DIELTQPPSVSVAPGQTARISCSGDNLRHYYVYWYQQKPGQAPVLVIYGDSKRPSGIPERFSGSNSGNTATLTISGTQAEDEADYYCQTYTGGASLVFGGGTKLTVLG
EC50 [1]: 14.7 nM
ADCC RPMI8226 EC50 [2]: 0.14 nM
CDC CHO EC50 [2]: 3.4 nM
EC50 [3]: 6.3 nM
EC50 [4]: 17.5 nM
EC50 [5]: 5.7 nM
ELISA CD38 Fc-Fusion protein (% Reactivity of MOR03087) [6]: 100%
Kd [7]: 5 nM
EC50 [8]: 17.4 nM

B3: MOR06183 IgG (antibody, V domains shown)
VH: B1 VH with S52N, G53M, D54E, P55S, S56T, N57R, T58I
VL: B1 VL
EC50 [5]: 8.91 nM
ELISA CD38 Fc-Fusion protein (% Reactivity of MOR03087) [6]: 106%

B10: MOR03102 IgG1 (antibody, V domains shown)
VH: QVQLQESGPGLVKPGETLSLTCTVSGGSISGNYWSWIRQAPGKGLEWIGDYHGSTYYNPSLKGRVTISVDTSKNQFSLKLSSVTAEDTAVYYCAREQYHWGLAWTGFDNWGQGTLVTVSS
VL: DIELTQPPSVSVAPGQTARISCSGDNLGHYYVSWYQQKPGQAPVLVIYDDSDRPSGIPERFSGSNSGNTATLTISGTQAEDEADYYCGAYAMHMTVFGGGTKLTVLG
Kd [7]: 5 nM

B11: MOR03081 IgG1 (antibody, V domains shown)
VH: QVQLVESGGGLVQPGGSLRLSCAASGFTFSSYALHWVRQAPGKGLEWVSSISGLGSTTYYADSVKGRFTISRDNSKNTLYLQMNSLRAEDTAVYYCARYHYEYHYFSSGFDNWGQGTLVTVSS
VL: DIVLTQSPATLSLSPGERATLSCRASQTGSTSYLAWYQQKPGQAPRLLIYDASKRATGVPARFSGSGSGTDFTLTISSLEPEDFATYYCHQYYNVPHTFGQGTKVEIKR
Kd [7]: 2.5 nM

B12: MOR03088 Fab (Fab, V domains shown)
VH: QVQLVESGGGLVQPGGSLRLSCAASGFTFSSYAMNWVRQAPGKGLEWVSGISSWGSSTYYADSVKGRFTISRDNSKNTLYLQMNSLRAEDTAVYYCAREDGSYMTDYFAYWGQGTLVTVSS
VL: DIELTQPPSVSVAPGQTARISCSGDNIGHYYVSWYQQKPGQAPVLVIYSDSNRPSGIPERFSGSNSGNTATLTISGTQAEDEADYYCQSYNGTYVFGGGTKLTVLG
notes: Fab format
Kd [14]: 95 nM
binding result [15]: binds
binding result [16]: binds
Kd [10]: 2.15 nM
Kd [12]: 41.4 nM
EC50 [17]: 24.6 nM

B13: MOR03088 IgG (antibody, V domains shown)
VH: B12 VH
VL: B12 VL
EC50 [18]: 24.6 nM
EC50 [19]: 2.6 nM
EC50 [20]: 25.5 nM
ELISA CD38 Fc-Fusion protein (% Reactivity of MOR03087) [6]: 18%
EC50 [21]: 15.3 nM

B14: MOR03127 Fab (Fab, V domains shown)
VH: QVQLVQSGAEVKKPGESLKISCKGSGYSFSTSWVGWVRQMPGKGLEWMGIIDPDISYTSYSPSFQGQVTISADKSISTAYLQWSSLKASDTAMYYCARYLMGLGYDVWGQGTLVTVSS
VL: DIALTQPASVSGSPGQSITISCTGTSSDVGAINYVSWYQQHPGKAPKLMIYDVNKRPSGVPDRFSGSKSGNTASLTISGLQAEDEADYYCGSYTMQVGSYVFGGGTKLTVLG
notes: Fab format
Kd [22]: 168 nM

B15: MOR03128 Fab (Fab, V domains shown)
VH: QVQLKESGPALVKPTQTLTLTCTFSGFSLSSSGMSVSWIRQPPGKALEWLARIYSDDSKSYSTSLKTRLTISKDTSKNQVVLTMTNMDPVDTATYYCARAAHWNGPLFDVWGQGTLVTVSS
VL: DIELTQPPSVSVAPGQTARISCSGDNIGHYYAHWYQQKPGQAPVVVIYDDNDRPSGIPERFSGSNSGNTATLTISGTQAEDEADYYCQAYTGDGGRVFGGGTKLTVLG
notes: Fab format
Kd [23]: 117 nM

B16: MOR03085 IgG1 (antibody, V domains shown)
VH: QVQLVQSGAEVKKPGASVKVSCKASGYTFTGYYINWVRQAPGQGLEWMGWIFPNGGSTGYAQKFQGRVTMTRDTSISTAYMELSSLRSEDTAVYYCARGNIFIFDYWGQGTLVTVSS
VL: DIVLTQPPSVSGAPGQRVTISCSGSSSNIGNNYVSWYQQLPGTAPKLLIYGDDQRPSGVPDRFSGSKSGTSASLAITGLQSEDEADYYCQSYGTFSSFVFGGGTKLTVLG
Kd [7]: 10 nM

Further lines, results first:

EC50 [5]: 20.1 nM
ELISA CD38 Fc-Fusion protein (% Reactivity of MOR03087) [6]: 140%
B2: MOR06188 IgG (antibody, V domains shown)
VH: B1 VH with G50A, G53T, D54N, P55G, S56W, N57Q
VL: B1 VL

EC50 [5]: 9.37 nM
ELISA CD38 Fc-Fusion protein (% Reactivity of MOR03087) [6]: 145%
B4: MOR06187 IgG (antibody, V domains shown)
VH: B1 VH with G50A, G53S, D54N, P55G, S56D, N57I
VL: B1 VL

EC50 [5]: 10.6 nM
ELISA CD38 Fc-Fusion protein (% Reactivity of MOR03087) [6]: 150%
B5: MOR06184 IgG (antibody, V domains shown)
VH: B1 VH with G50A, G53H, P55G, S56N, N57V, T58K
VL: B1 VL

EC50 [5]: 15.6 nM
ELISA CD38 Fc-Fusion protein (% Reactivity of MOR03087) [6]: 117%
B6: MOR06186 IgG (antibody, V domains shown)
VH: B1 VH with G50A, S52N, G53L, D54S, P55G, N57A, T58K
VL: B1 VL

binding result [9]: binds
Kd [10]: 0.0488 nM
EC50 [11]: 5.37 nM
Kd [12]: 5.68 nM
binding result [13]: binds
B7: MOR03087 Fab (Fab, V domains shown)
VH: B1 VH
VL: B1 VL
notes: Fab format

EC50 [5]: 11.5 nM
ELISA CD38 Fc-Fusion protein (% Reactivity of MOR03087) [6]: 142%
B8: MOR06185 IgG (antibody, V domains shown)
VH: B1 VH with G50A, G53M, D54N, P55G, S56D, N57Y, T58I, Y59S
VL: B1 VL

EC50 [5]: 7.15 nM
ELISA CD38 Fc-Fusion protein (% Reactivity of MOR03087) [6]: 144%
B9: MOR06200 IgG (antibody, V domains shown)
VH: B1 VH with G50A, G53N, D54N, P55G, S56N, N57V
VL: B1 VL
notes: copies: 2 + 2
